The record followed here is PMC2592692.

Experiment [1] addresses microtubules (purified tubulin, polymerised in buffer). The experiment in a line: TIRF of Eg5-GFP on immobilised GMPCPP microtubules. To be noted: reference: wild-type Eg5-GFP, Cdk1-treated; sites T937.
The target in experiment [2] is Alexa-568 labeled microtubules (paclitaxel-stabilised) (UniProt P02550).
In experiment [3] the target is spindle microtubules in Xenopus egg extract (Xenopus laevis (endogenous in egg extract)). The experiment in a line: fluorescence microscopy of fixed spindles (GFP intensity per TAMRA-tubulin intensity); endogenous Eg5 immunodepleted from Xenopus egg extract and replaced by recombinant Eg5-GFP constructs; spindle structures fixed after 45 min, spun onto coverslips; ratios normalised to 1 at 460 nM Eg5-GFP.

Residue numbers refer to the chain shown, from its start. Names and notes keep the numbering of the source.

Sequence of UniProt P02550 (P02550 whole entry, looked up): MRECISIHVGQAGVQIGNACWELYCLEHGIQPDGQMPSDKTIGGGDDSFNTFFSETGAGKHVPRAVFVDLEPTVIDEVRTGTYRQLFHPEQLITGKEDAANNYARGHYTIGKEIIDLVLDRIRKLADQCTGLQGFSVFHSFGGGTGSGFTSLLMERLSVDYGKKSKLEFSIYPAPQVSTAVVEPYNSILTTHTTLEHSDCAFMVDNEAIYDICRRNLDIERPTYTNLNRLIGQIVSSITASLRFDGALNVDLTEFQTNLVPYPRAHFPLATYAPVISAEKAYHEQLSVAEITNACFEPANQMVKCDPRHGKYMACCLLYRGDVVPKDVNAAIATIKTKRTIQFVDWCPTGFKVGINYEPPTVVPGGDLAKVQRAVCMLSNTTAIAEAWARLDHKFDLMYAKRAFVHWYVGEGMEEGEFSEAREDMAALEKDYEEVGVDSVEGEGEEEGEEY

As to Eg5 1-1067 Eg5T937A-GFP, Cdk1-treated, the “other: mean GFP intensity on microtubules at 15 nM Eg5” value in experiment [1] is “weaker; reference 1226±39”.

B1: Eg5 phosphorylated at threonine 937 by Cdk1/cyclin B in vitro (natural protein)
chain: MSSQNSFMASKKEDKGKNIQVVVRCRPFNQLERKASSHSVLECDSQRKEVYVRTGEVNDKLGKKTYTFDMVFGPAAKQIEVYRSVVCPILDEVIMGYNCTIFAYGQTGTGKTFTMEGERSSDEEFTWEQDPLAGIIPRTLHQIFEKLSENGTEFSVKVSLLEIYNEELFDLLSPSPDVGERLQMFDDPRNKRGVIIKGLEEISVHNKDEVYHILERGAARRKTASTLMNAYSSRSHSVFSVTIHMKETTVDGEELVKIGKLNLVDLAGSENIGRSGAVDKRAREAGNINQSLLTLGRVITALVERTPHIPYRESKLTRILQDSLGGRTKTSIIATVSPASINLEETVSTLDYANRAKSIMNKPEVNQKLTKKALIKEYTEEIERLKRELAAAREKNGVYLSSENYEQLQGKVLSQEEMITEYTEKITAMEEELKSISELFADNKKELEECTTILQCKEKELEETQNHLQESKEQLAQESFVVSAFETTEKKLHGTANKLLSTVRETTRDVSGLHEKLDRKKAVDQHNFQVHENFAEQMDRRFSVIQRTVDDYSVKQQGMLDFYTNSIDDLLGASSSRLSATASAVAKSFASVQETVTKQVSHSVEEILKQETLSSQAKGDLQQLMAAHRTGLEEALRSDLLPVVTAVLDLNSHLSHCLQNFLIVADKIDSHKEDMNSFFTEHSRSLHKLRLDSSSALSSIQSEYESLKEDIATAQSMHSEGVNNLISSLQNQLNLLGMETQQQFSGFLSKGGKLQKSVGSLQQDLDLVSSEAIECISSHHKKLAEQSQDVAVEIRQLAGSNMSTLEESSKQCEKLTSSINTISQESQQWCESAGQKIDSVLEEQVCYLHSSKKHLQNLHKGVEDSCGSSVVEITDRVNAQRQAEEKALTSLVEQVRDDQEMVGEQRLELQEQVQSGLNKVHSYLKEELRNDVPTGTTPQRRDYAYPSLLVKTKPRDVLLEQFRQQQQEYLESISSVISEAVEPPVEQDSLEDEPPVAVNDSVISERSCIDLSMTCQEKGGIRFFQQKKALRKEKENRGNTTLLERSKIMDEVDQALTKSKLPLRMQN
modifications: phosphothreonine at 937 (degree of phosphorylation 87.9% per polypeptide chain)
The molecule B1 returned a velocity in microtubule gliding assay (surface-adsorbed motor, 21°C) in experiment [2] of 1.7 µm/min.

B2: Eg5_(T937A) (non-phosphorylatable mutant of full-length Xenopus laevis Eg5) (natural protein)
chain: B1 chain with T937A
In the case of B2, in experiment [2], the velocity in microtubule gliding assay relative to wild-type Eg5, with or without Cdk1/cyclin B turned out to be 88%.

B3: Eg5_(T937A)-GFP (non-phosphorylatable mutant of Xenopus laevis Eg5 with C-terminal GFP) (natural protein)
chain: B1 chain with T937A
With B3, the fold lower amount bound than wild-type Eg5-GFP, at endogenous concentration in experiment [3] came to 20 fold.

B4: Eg5 (wild-type full-length Xenopus laevis Eg5), not phosphorylated (natural protein)
chain: B1 chain
On to B4, for which the velocity in microtubule gliding assay (surface-adsorbed motor, 21°C) in experiment [2] was determined as 1.8 µm/min.
